Here are results for one molecule from article PMC10063446 (Nature Immunology, 2023).

In this assay the target is T1, SARS-CoV-2 wild-type RBD (SARS-CoV-2 wild-type).
T1 construct: also called WT-RBD
The experiment in a line: crystal structure. As to conditions: both partners purified.

B1: P5-1H1 Fab (Fab, V domains shown)
VH: EVQLVESGGGLIQPGGSLRLSCAASGITVSSNYMTWVRQPPGKGLEWVSVIYSGGSTFYADPVKGRFTISRDNSRNTLYLQMNSLRAEDTAVYYCARDLQVYGMDVWGQGTTVTVSS
VL: DIQLTQSPSFLSASVGDRVTITCRASQGISNFLAWYQQKPGKAPKLLIYAASTLQGGVPSTFSGSGSGTEFTLTISSLQPEDFATYYCQHLNDYPLFGGGTRVEIK
Turning to B1, the binding result is recorded as “binds”.
